Experiments:
[1] = system: T1, peptide B11 (LKLSPSPSSRPFR), derived from lamin-b1 (Ser392)
T1 sequence: LKLSPSPSSRPFR

[2] = system: T2, peptide A6 (RPGPQSPGSPPFR), derived from neutrophil cytosol factor 1
T2 sequence: RPGPQSPGSPPFR

[3] = system: seven peptides sharing a common motif of [S/T]-Pro and clear upregulation by G2/M arrest
[4] = system: T3, peptide C2 (IPTGTTPQRKPFR), derived from kinesin-like protein kif11 (Thr927)
T3 sequence: IPTGTTPQRKPFR

[5] = system: peptide H5 (EYDRLYEEYTPFR), derived from Phosphatidylinositol 3-kinase regulatory subunit p85α(Tyr-467)/p55γ(Tyr-199)
[6] = system: T4, peptide F6 (RIRTQSFSLQPFR), derived from nitric-oxide synthase, endothelial (Ser1176)
T4 sequence: RIRTQSFSLQPFR

[7] = system: T5, peptide C6 (TKRSGSVYEPPFR), derived from phosphorylase b kinase regulatory subunit beta (Ser26)
T5 sequence: TKRSGSVYEPPFR

Substance: Cdc2/cyclin B1 (full length), purified complex
- phosphorylation by purified kinase complex (KAYAK profiling of 90 peptides) [1]: purified Cdc2/Cyclin B1 complex phosphorylated all 7 peptides along with 4 other up-regulated peptides
- phosphorylation by purified kinase complex (KAYAK profiling of 90 peptides) [2]: purified Cdc2/Cyclin B1 complex phosphorylated all 7 peptides along with 4 other up-regulated peptides
- phosphorylation by purified kinase complex (KAYAK profiling of 90 peptides) [3]: purified Cdc2/Cyclin B1 complex phosphorylated all 7 peptides along with 4 other up-regulated peptides
- phosphorylation by purified kinase complex (KAYAK profiling of 90 peptides) [4]: purified Cdc2/Cyclin B1 complex phosphorylated all 7 peptides along with 4 other up-regulated peptides

Substance: Src (full length), purified human active kinase
- in vitro kinase reaction with purified kinase [5]: robust phosphorylation by Src but not EGFR

Substance: Akt1 (full length), purified human active kinase
- peptide phosphorylation, 100 µM peptide reacted individually [6]: both RSK and Akt demonstrated strong phosphorylation
- in vitro peptide phosphorylation by purified kinase (KAYAK, LC-MS) [7]: this peptide was not significantly phosphorylated by Akt

Source: US20110269161
